From patent publication US20120196760A1, “METHODS AND COMPOSITIONS FOR IDENTIFYING MODULATORS OF ANTI-TETHERIN ACTIVITY TO INHIBIT P[…] VIRUSES” (CHILDRENS HOSPITAL LOS ANGELES, priority 2008, published 2012)

Tested on: HIV-1 VLPs
Assay: HIV-1 VLP release from cells expressing Tetherin constructs (Western blot, % VLP release)
Format: cell-based
Settings: Tetherin expressed alone, no anti-Tetherin; FIG. 9B

B1: full-length human Tetherin: human cellular protein that tethers newly budded HIV particles at the cell surface and restricts virus release (protein)
chain: MASTSYDYCRVPMEDGDKRCKLLLGIGILVLLIIVILGVPLIIFTIKANSEACRDGLRAVMECRNVTHLLQQELTEAQKGFQDVEAQAATCNHTVMALMASLDAEKAQGQKKVEELEGEITTLNHKLQDASAEVERLRRENQVLSVRIADKKYYPSSQDSS
reduction of release of Virus-Like Particles (VLPs): about 95%
